Molecular target: Orfelia fultoni luciferase (Orfelia fultoni (endogenous in larvae))
Experiment: native gel or EMSA; 6% Native-PAGE of the luciferase fraction from anion exchange, no SDS or mercaptoethanol, 25 mM Tris/192 mM glycine, ice-cooled; band shown by bioluminescence with hot extract; the luminescent ~220 kDa band was eluted and re-run on denaturing SDS-PAGE (single ~70 kDa band)

stoichiometry N: 3
Substance: Orfelia fultoni luciferase (enzyme)
